# B1: L45S4 (antibody, IgG2a, V domains shown)
# VH: EVQLQQSGPELVKPGASVKISCKASGYTFTDYYMNWVKQSHGKSLEWIGDINPNNGGTSYNQKFKGKATLTVDKSSSTAYMELRSLTSEDSAVYYCARGGAELTGTYWYFDVWGTGTTVTVSS
# VL: DIQMTQSPASLSISVGETVTITCRASENIYSNLAWYQQKQGKSPQVLVYGATNLADGVPSRFSGSGSGTQYSLKIKSLQSEDFGSYYCQHFWDSPFTFGSGTKLEIK
# notes: also called Murine 45; mouse anti-human ILT4 antibody L45S4
# B2: Hz77-LALA (antibody, human IgG1, kappa, L234A L235A, V domains shown)
# VH: QVQLVQSGAEVKKPGSSVKVSCKASGYSFTGYSVNWVRQAPGQGLEWIGRINPYNGDIFNNQKFKGRATITVDKSTSTAYMELSSLRSEDTAVYYCARGTTVGGAWFAYWGQGTLVTVSS
# VL: DIVMTQSPDSLAVSLGERATINCRASESVDSYGYSFLHWYQQKPGQPPKLLIYLASNLESGIPDRFSGSGSGTDFTLTISSLQAEDVAVYYCQQSNEDLMYTFGGGTKVEIKR
# notes: Humanized L77S2, human IgG1 L234A/L235A, kappa; also called Humanized 77_01; Hz 77 01
# B3: L41S5 (antibody, IgG2a, V domains shown)
# VH: QVQLQQSGAELVKPGASVKISCKASGYAFSSYWMNWVKQRPGKGLEWIGQIYPGHGDTNYNGKFKGKATLTADKSSSTAYMQLSSLTSEDSAVYFCAKEGSELGRLFAYWGQGTLVTVSA
# VL: QIVLTQSPALMSASPGEKVTMTCSASSSVSFMYWYQQKPRSSPKPWIYLTSNLASGVPARFSGSGSGTSYSLTISSMEAEDAATYYCQQWSSNPPTFGGGTKLEIK
# notes: also called mouse anti-human ILT4 antibody L41S5
# Key:
# [1] = biological target: T1, human ILT4 expressed on cells (human, UniProt Q8N423 22-597); experiment: cell-based or functional assay
# [2] = biological target: T2, recombinant human ILT4 (LILRB2) (human, UniProt Q8N423 22-460); experiment: SPR, Biacore T200, mAb captured on anti-Fc, ILT4 injected, medium resolution, 25 C
# T2 construct: Bought protein (Acro Biosystems or R&D Systems); also called ILTR4
# Experimental: (§1) Label-free SPR analysis on a Biacore T200 instrument was utilized to measure antibody affinity to ILT4. CM4 sensor chips from Cytiva Inc. were utilized for all medium resolution analyses. Either anti-mouse Fc specific or anti-human Fc specific capture surfaces were prepared using standard amine coupling chemistry. Mouse, Chimera or Humanized mAbs were captured to their respective surfaces and ILT4 was injected across the surfaces from 101 nM to 0.79 nM in a 2-fold serial dilution series at a flow rate of 100 μL/min. The association phase was followed for 90 sec. while the dissociation phase was followed for 1200 sec. due to the medium resolution analysis implemented here. The sensorgrams were double-referenced and fit globally to a 1:1 interaction model with a term included for mass transport, and the equilibrium dissociation constant was calculated as KD=koff/kₒₙ. […] All kinetic experiments were performed at 25° C. in a buffer consisting of Hepes-buffered saline, pH 7.4, with 0.05% polysorbate 20 (HBS-P+) and 100 μg/ml Bovine Serum Albumin (BSA).
# [3] = biological target: T1, human ILT4 expressed on cells; experiment: flow cytometry, blockade of PE-HLA-G tetramer binding to CHO-S/ILT4 cells, experiment 2
# Experimental: (§2) In the second blocking experiment, the primary antibody dilutions were made by diluting antibody to 15 μg/ml in FACS buffer. Three independent sets of eleven 2.5-fold serial dilutions were then made in FACS buffer from 15 μg/ml to 0.002 μg/ml. Each dilution set was handled independently, and 50 μl from each was added to cells in duplicate. Control wells received FACS buffer with no antibody. Wells were mixed and incubated for 30 minutes at 4 degrees C. Cells were washed twice in FACS buffer.
# (§3) In both blocking experiments, phycoerythrin (PE)-conjugated HLA-G tetramer was diluted in FACS buffer to 5 μg/ml and 100 μl per well was added to cells. Cells were incubated at 4 degrees C. for 30 minutes, washed twice in FACS buffer, and resuspended in 250 μl FACS buffer with 0.1 μg/ml propidium iodide.
# (§4) Cells were acquired on an Attune flow cytometer, with 5000 propidium iodide-negative cells collected per sample, and MFI was recorded. Relative blocking activity was calculated with the following formula: 100−(Sample MFI−Background MFI)/(Top MFI−Background MFI)*100. Prism software (Graphpad) was used to plot MFI and relative blocking activity for each sample. The blocking potency for each antibody, represented as IC₅₀, was calculated with Prism software.
# [4] = biological target: T1, human ILT4 expressed on cells; experiment: flow cytometry, blockade of PE-HLA-G tetramer (5 µg/ml) binding to CHO-S/ILT4 cells, experiment 2
# Experimental: as §2, §3, §4
# [5] = biological target: T1, human ILT4 expressed on cells; experiment: flow cytometry blocking assay: ILT4-expressing CHO cells preincubated with antibody, then PE-HLA-G; HLA-G binding MFI falls from about 105000 (no antibody) to near 0
# Experimental: as §2, §3, §4
# [6] = biological target: T1, human ILT4 expressed on cells; experiment: flow based HLA-G blocking assay
# [7] = biological target: T2, recombinant human ILT4 (LILRB2); experiment: KinExA, solution equilibrium, n-curve analysis
# Experimental: Kinetic Exclusion Assay (KinExA®) was performed to measure the equilibrium binding affinity and kinetics between human ILT4 and four humanized LALA-Fc modified antibodies in solution. For affinity analysis, the equilibrium dissociation constant, KD, was experimentally determined and reflects the strength of the binding interaction. The rate of association, kₒₙ, was also experimentally determined, while the rate of dissociation, koff, is calculated based on the following equation: koff=KD×kₒₙ
# The binding affinity (KD), association (kₒₙ), and dissociation rate constants (koff) were measured for 4 different Humanized LALA IgG antibodies to ILT4 using KinExA. An n-curve analysis of at least two different curves, run at two different CBP concentrations, was used to determine the KD of the interactions The ILT4 was used as the concentration reference for all curves. All of the binding systems have low error and well defined 95% confidence intervals giving confidence to the measurements: […]
# [8] = biological target: T2, recombinant human ILT4 (LILRB2); experiment: SPR, high resolution kinetics, triplicate, LALA antibody
# LILRA1 = biological target: T3, LILRA1 (human, UniProt O75019 17-461); experiment: SPR, Biacore 8K, mAb captured on anti-human Fc, analyte injected
# T3 construct: Bought protein; limits of the extracellular domain are marked by bold type not visible here; whole entry named; also called recombinant human LILRA1
# Experimental: (§5) SPR was used to determine the specificity of four humanized anti-ILT4 mAbs for binding to LILRB2 and to determine any cross-reactivity with nine other LILRA and LILRB family members. LILR proteins were purchased from Acro Biosystems or R&D Systems, with sequence provided below. The studies were performed with a Biacore 8K instrument using a CM4 sensor chip with a running buffer of HBS-P+, 100 μg/mL BSA. Anti-human Fc specific capture surfaces were prepared using standard amine coupling chemistry. MAb was captured to flow cell 2 with flow cell 1 serving as the reference flow cell. Each of the nine family members and LILRB2 were injected at 100 nM at 30 μL/min for 90 sec with 240 sec of dissociation. […] All sensorgrams were doubled-referenced during processing of the data.
# LILRA2 = biological target: T4, LILRA2 (human, UniProt Q8N149 24-449); experiment: as above
# T4 construct: Bought protein; limits of the extracellular domain are marked by bold type not visible here; whole entry named; also called recombinant human LILRA2
# Experimental: as §5
# LILRA3 = biological target: T5, LILRA3 (human, UniProt Q8N6C8 24-439); experiment: as above
# T5 construct: Bought protein; limits of the part used are marked by bold type not visible here; whole entry named; also called recombinant human LILRA3
# Experimental: as §5
# LILRA4 = biological target: T6, LILRA4 (human, UniProt P59901 24-446); experiment: as above
# T6 construct: Bought protein; limits of the extracellular domain are marked by bold type not visible here; whole entry named; also called recombinant human LILRA4
# Experimental: as §5
# LILRA5 = biological target: T7, LILRA5 (human, UniProt A6NI73 42-268); experiment: as above
# T7 construct: Bought protein; limits of the extracellular domain are marked by bold type not visible here; whole entry named; also called recombinant human LILRA5
# Experimental: as §5
# LILRA6 = biological target: T8, LILRA6 (human, UniProt Q6PI73 24-447); experiment: as above
# T8 construct: Bought protein; limits of the extracellular domain are marked by bold type not visible here; whole entry named; also called recombinant human LILRA6
# Experimental: as §5
# LILRB1 = biological target: T9, LILRB1 (human, UniProt Q8NHL6 24-461); experiment: as above
# T9 construct: Bought protein; limits of the extracellular domain are marked by bold type not visible here; whole entry named; also called recombinant human LILRB1; ILT2
# Experimental: as §5
# LILRB3 = biological target: T10, LILRB3 (human, UniProt O75022 24-443); experiment: as above
# T10 construct: Bought protein; limits of the extracellular domain are marked by bold type not visible here; whole entry named; also called recombinant human LILRB3; ILT5
# Experimental: as §5
# LILRB4 = biological target: T11, LILRB4 (human, UniProt Q8NHJ6 22-259); experiment: as above
# T11 construct: Bought protein; limits of the extracellular domain are marked by bold type not visible here; whole entry named; also called recombinant human LILRB4; ILT3
# Experimental: as §5
# [9] = biological target: T2, recombinant human ILT4 (LILRB2); experiment: SPR, Biacore T200, medium resolution; koff held at its limit of 4.27e-5 s^-1
# Experimental: as §1
# [10] = biological target: T2, recombinant human ILT4 (LILRB2); experiment: SPR, high resolution kinetics, triplicate, LALA antibody; 95% CI in parentheses
# [11] = biological target: T2, recombinant human ILT4 (LILRB2); experiment: SPR, Biacore 8K, mAb captured on anti-human Fc, LILRB2 at 100 nM; legend: ++++ tight binding (<100 pM KD)
# Experimental: as §5
# T2 sequence (Q8N423 other isoform, or with tags, fused parts or gaps limits assumed): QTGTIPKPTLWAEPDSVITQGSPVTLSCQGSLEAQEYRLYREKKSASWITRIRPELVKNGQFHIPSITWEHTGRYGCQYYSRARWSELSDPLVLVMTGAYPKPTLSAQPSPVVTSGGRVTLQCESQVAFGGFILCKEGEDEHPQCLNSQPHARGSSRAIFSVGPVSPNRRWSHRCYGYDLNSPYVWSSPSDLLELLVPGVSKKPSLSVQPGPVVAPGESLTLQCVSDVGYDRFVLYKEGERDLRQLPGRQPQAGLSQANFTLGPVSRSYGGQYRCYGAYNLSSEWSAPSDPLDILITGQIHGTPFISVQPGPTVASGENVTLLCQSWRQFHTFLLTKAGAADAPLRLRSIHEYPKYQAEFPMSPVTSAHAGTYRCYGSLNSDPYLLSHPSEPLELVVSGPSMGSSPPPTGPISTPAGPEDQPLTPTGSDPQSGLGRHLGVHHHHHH
# T1 sequence (Q8N423 22-597): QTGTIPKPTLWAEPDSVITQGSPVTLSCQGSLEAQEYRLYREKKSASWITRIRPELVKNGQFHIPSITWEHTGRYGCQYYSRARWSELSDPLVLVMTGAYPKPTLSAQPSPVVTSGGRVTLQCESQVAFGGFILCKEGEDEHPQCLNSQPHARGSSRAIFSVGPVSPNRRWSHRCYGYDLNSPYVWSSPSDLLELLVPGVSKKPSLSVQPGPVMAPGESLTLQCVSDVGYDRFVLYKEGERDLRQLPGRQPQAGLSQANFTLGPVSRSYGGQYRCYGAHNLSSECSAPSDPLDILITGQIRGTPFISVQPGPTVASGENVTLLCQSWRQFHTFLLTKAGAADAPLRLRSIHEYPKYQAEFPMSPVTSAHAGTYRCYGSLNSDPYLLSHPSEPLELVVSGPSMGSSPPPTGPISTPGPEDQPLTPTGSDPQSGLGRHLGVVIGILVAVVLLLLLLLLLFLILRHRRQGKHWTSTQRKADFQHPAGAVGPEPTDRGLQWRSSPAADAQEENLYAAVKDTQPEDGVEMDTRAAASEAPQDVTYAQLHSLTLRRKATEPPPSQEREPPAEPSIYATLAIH
# T8 sequence (Q6PI73 other isoform, or with tags, fused parts or gaps): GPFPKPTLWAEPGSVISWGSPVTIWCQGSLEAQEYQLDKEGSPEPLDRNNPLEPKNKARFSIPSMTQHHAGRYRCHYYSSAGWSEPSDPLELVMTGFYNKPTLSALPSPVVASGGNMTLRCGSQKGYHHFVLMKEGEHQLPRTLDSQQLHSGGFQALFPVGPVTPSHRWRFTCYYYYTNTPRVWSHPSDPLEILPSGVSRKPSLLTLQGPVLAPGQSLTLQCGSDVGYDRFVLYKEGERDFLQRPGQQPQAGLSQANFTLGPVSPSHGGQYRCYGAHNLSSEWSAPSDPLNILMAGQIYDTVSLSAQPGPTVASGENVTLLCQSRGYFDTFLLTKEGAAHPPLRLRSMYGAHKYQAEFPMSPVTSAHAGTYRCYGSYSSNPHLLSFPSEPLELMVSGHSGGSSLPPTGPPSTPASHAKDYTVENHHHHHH
# T9 sequence (Q8NHL6 other isoform, or with tags, fused parts or gaps): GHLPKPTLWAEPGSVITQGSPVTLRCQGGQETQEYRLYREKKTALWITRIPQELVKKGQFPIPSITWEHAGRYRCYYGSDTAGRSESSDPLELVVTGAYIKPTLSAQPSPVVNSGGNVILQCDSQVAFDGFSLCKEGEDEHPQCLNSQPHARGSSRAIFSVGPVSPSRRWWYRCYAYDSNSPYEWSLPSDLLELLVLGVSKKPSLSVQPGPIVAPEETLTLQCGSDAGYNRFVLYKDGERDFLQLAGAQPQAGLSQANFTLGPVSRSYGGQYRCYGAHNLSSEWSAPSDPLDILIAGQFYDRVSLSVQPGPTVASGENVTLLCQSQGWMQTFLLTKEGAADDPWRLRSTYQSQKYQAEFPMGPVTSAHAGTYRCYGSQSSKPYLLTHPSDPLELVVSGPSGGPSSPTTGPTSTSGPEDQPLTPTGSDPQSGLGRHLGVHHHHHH
# T3 sequence (O75019 other isoform, or with tags, fused parts or gaps): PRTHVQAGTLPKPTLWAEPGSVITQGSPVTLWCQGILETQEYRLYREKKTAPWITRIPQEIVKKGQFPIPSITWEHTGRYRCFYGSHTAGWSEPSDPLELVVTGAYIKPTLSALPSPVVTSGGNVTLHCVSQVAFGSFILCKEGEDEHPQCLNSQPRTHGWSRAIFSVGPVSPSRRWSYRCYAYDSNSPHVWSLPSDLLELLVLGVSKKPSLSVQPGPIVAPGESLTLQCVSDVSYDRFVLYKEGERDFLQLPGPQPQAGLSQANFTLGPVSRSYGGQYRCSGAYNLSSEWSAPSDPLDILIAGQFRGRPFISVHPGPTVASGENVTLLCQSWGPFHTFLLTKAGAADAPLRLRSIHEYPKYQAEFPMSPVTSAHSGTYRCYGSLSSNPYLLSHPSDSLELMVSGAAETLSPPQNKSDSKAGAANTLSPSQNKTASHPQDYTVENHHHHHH
# T5 sequence (Q8N6C8 24-439 A105V limits assumed): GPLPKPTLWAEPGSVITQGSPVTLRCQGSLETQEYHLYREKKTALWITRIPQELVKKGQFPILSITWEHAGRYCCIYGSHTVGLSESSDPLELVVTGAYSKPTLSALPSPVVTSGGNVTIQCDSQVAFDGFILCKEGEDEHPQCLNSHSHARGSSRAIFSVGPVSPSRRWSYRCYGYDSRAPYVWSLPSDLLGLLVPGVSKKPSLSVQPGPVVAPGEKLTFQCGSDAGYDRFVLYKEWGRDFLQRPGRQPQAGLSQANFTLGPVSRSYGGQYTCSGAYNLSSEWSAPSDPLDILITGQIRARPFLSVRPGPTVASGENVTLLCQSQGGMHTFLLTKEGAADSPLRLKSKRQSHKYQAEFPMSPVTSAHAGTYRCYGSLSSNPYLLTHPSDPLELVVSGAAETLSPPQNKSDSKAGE
# T6 sequence (P59901 other isoform, or with tags, fused parts or gaps): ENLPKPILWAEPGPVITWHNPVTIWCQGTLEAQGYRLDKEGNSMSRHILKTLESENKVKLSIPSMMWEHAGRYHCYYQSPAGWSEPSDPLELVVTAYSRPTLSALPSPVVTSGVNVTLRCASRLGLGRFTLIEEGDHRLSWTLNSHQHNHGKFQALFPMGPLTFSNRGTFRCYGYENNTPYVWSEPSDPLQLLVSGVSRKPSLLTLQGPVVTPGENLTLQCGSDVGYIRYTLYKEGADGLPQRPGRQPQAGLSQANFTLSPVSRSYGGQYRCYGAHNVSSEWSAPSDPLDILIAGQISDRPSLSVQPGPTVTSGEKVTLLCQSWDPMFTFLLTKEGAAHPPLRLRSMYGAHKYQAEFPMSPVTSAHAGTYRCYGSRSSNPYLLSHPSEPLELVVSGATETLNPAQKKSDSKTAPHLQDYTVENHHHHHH
# T11 sequence (Q8NHJ6 other isoform, or with tags, fused parts or gaps): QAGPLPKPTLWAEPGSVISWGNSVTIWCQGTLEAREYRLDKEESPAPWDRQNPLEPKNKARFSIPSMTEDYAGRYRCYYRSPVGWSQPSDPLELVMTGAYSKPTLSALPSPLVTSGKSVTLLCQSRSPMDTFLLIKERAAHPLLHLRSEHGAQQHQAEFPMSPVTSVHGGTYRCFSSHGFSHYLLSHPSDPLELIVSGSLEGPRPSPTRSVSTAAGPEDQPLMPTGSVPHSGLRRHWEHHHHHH
# T7 sequence (A6NI73 other isoform, or with tags, fused parts or gaps): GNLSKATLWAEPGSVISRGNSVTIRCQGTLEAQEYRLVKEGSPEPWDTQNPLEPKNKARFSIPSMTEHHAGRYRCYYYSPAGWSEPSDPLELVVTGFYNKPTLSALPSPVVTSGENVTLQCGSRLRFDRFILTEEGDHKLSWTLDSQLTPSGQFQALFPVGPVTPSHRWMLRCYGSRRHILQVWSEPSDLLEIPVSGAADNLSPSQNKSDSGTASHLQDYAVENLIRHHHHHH
# T10 sequence (O75022 other isoform, or with tags, fused parts or gaps): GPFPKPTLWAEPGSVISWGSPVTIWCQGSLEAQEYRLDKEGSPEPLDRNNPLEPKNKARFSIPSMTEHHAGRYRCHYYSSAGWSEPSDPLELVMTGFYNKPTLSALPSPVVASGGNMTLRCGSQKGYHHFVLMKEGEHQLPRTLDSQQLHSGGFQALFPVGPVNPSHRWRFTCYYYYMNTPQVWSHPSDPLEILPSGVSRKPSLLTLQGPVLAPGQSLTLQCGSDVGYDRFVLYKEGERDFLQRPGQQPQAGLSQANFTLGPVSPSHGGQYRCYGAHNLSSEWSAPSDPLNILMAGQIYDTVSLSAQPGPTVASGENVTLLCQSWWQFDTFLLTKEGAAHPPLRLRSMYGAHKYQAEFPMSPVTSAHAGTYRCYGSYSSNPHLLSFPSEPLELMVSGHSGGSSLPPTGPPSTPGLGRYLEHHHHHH
# T4 sequence (Q8N149 other isoform, or with tags, fused parts or gaps): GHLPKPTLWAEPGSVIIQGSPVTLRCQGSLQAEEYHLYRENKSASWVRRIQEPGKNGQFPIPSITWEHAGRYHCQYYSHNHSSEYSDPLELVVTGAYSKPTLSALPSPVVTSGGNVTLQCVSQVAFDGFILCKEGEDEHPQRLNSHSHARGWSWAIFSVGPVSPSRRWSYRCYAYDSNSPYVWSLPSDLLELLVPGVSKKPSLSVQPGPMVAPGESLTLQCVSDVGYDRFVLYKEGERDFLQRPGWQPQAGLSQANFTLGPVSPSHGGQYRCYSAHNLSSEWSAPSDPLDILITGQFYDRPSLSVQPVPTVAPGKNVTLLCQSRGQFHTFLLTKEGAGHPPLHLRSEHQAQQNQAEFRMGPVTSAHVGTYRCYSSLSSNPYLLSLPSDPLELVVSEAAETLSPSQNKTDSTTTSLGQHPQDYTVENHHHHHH
binder,measurement,setting,value
B1,"IL-6 secretion by LPS-stimulated M2 macrophages (MSD), fold over control",[1],2 fold
same,Kd,[2],0.21 nM
same,koff,[2],8.4e-05 s⁻¹
same,kon,[2],401000 M⁻¹ s⁻¹
same,fold decrease of PE-HLA-G MFI,[3],≤ 69 fold
same,IC50,[4],0.044 mg/L
same,IC50,[5],0.071 mg/L
B2,IC50,[6],0.176 mg/L
same,Kd,[7],0.00546 nM
same,Kd,[8],0.0089 nM
same,koff,[8],4.24e-05 s⁻¹
same,binding result,LILRA1,no binding (tested: 100 nM)
same,binding result,LILRA2,no binding (tested: 100 nM)
same,binding result,LILRA3,no binding (tested: 100 nM)
same,binding result,LILRA4,no binding (tested: 100 nM)
same,binding result,LILRA5,no binding (tested: 100 nM)
same,binding result,LILRA6,no binding (tested: 100 nM)
same,binding result,LILRB1,no binding (tested: 100 nM)
same,binding result,LILRB3,no binding (tested: 100 nM)
same,binding result,LILRB4,no binding (tested: 100 nM)
same,Kd,[9],≤ 0.052 nM
same,koff,[9],≤ 4.27e-05 s⁻¹
same,kon,[10],4.78e+06 M⁻¹ s⁻¹
same,kon,[2],835000 M⁻¹ s⁻¹
same,KD,[11],< 0.1 nM
B3,fold decrease of PE-HLA-G MFI,[3],≤ 14 fold
same,IC50,[4],0.134 mg/L
